{"source": "the nanobody polyreactivity screen of Harvey et al. (2022)"}
{"experiment": "yeast display, Sf9 membrane polyspecificity reagent, FACS + sequencing; frameworks hold sequencing errors", "in_short": "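In a synthetic yeast display library (Saccharomyces cerevisiae BJ5465), nanobody expression was induced with galactose for 36–48 hours. FACS gates were set low and high (top ~1%) using anti-HA fluorescence for expression and streptavidin fluorescence for binding of the Sf9 membrane reagent. Each polyreactivity label is drawn from the gate of origin.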"}
{"sequence": "QVQLVESGGGLVQAGGSLRLSCAASGFTFYLYGMGWYRPAPGKERELVAGIDSDGRTNYADSVKGRFTISRDNAMNTVYLQMNSLKPEDTAVYYCAVEWAGGYDYYYWGQGSQVTVSS", "polyreactivity (PSR sort gate)": "high polyreactivity"}
{"sequence": "QVQLVESGGGLVQAGGSLRLSCAASGFTFYLYTMGWYRQAPGKERELVAAINYSGGRTYYADSVKGRFTISRDNAKNTVYLQMNSLKPEDTAVYYCYPRVKNLQAYDYWGQGTQVTVSS", "polyreactivity (PSR sort gate)": "high polyreactivity"}
{"sequence": "QVQLVESGGGLVQAGGSLRLSCAASGFTFYPYAMGWYRQAPGKERELVAASTASGGSTYYADSVKGRFTISRDNAKNTVYLQMNSLKPEDTAVFYCAKGWVSYWRYKNEYWGQGTQVTVSS", "polyreactivity (PSR sort gate)": "high polyreactivity"}
{"sequence": "QVQLVESGGGLVQAGGSLRLSCAASGFTFYPYTMGWYRQAPGKERELVAVITYDSTYYADSVKGRFTISRDNAKNTVYLQMNSLKPEDTAVYYCNATGYSVSRSAYWYGWYDYWGQGTQVTVSS", "polyreactivity (PSR sort gate)": "low polyreactivity"}
{"sequence": "QVQLVESGGGLVQAGGSLRLSCAASGFTFYQYAMGWSRPAPGKERELVAGISRGGRTYYADSVKGRFTISRDNANNTVYLQMNSLKPEDTAVYYCAARYFYYKNVYAYRTYYYWGQGTQVTVSS", "polyreactivity (PSR sort gate)": "high polyreactivity"}
{"sequence": "QVQLVESGGGLVQAGGSLRLSCAASGFTFYQYAMGWYRQAPGKERELVASISWSGGRTYYADSVKGRFTISRDNAKKTVYFQKNSLKPEDTAVYYCAARAYRIAGYDYWGQGTQVTVSS", "polyreactivity (PSR sort gate)": "high polyreactivity"}
{"sequence": "QVQLVESGGGLVQAGGSLRLSCAASGFTFYRNAMGWYRQAPGKERELVAAISRGGRTYYADSVKGRFTISRDNAKNTVYLQMNSLKPEDTAVYYCAVGYSGYGSSMDYWGQGTQVTVSS", "polyreactivity (PSR sort gate)": "high polyreactivity"}
{"sequence": "QVQLVESGGGLVQAGGSLRLSCAASGFTFYRNAMGWYRQAPGKEREVVAAISISGGSTYYADSVKGRFTISRDNAKNTVYLQMNSLKPEDTAVYYCAAYYYRDRYSRVKVTYWGLGTQVTVSS", "polyreactivity (PSR sort gate)": "high polyreactivity"}
{"sequence": "QVQLVESGGGLVQAGGSLRLSCAASGFTFYRNTMGWYRQAPGKERELVATITFSGTRTYYADSVKGRFTISRDNAKNTVYLQMNSLKPEDTAVYYCNRVRYRQSAFDFWGQGTQVTVSS", "polyreactivity (PSR sort gate)": "high polyreactivity"}
{"sequence": "QVQLVESGGGLVQAGGSLRLSCAASGFTFYRYAMGWYRKAPGKERELVAAISSSGGTTYYADSVKVRFTISRDHAKNTVYLQMNRLKPEDTAVYYCAARGWPNWGWGYDYWGQGTQVTVSS", "polyreactivity (PSR sort gate)": "high polyreactivity"}
{"sequence": "QVQLVESGGGLVQAGGSLRLSCAASGFTFYRYAMGWYRQAPGKERELVAAFSGSGGSTYYADSVKGRFTISRDNAKNTVYLQMNSLKPEDTAVYYCNTVWFYGAKYDYWGQGTQVTVSS", "polyreactivity (PSR sort gate)": "high polyreactivity"}
{"sequence": "QVQLVESGGGLVQAGGSLRLSCAASGFTFYRYAMGWYRQAPGKERELVAAISKRGGNTYYADSVKGRFTISRDNAKNTVYLQMNSLKPEDTAVYYCAADFATWDAKPYDYWGQGTQVTVSS", "polyreactivity (PSR sort gate)": "high polyreactivity"}
{"sequence": "QVQLVESGGGLVQAGGSLRLSCAASGFTFYRYAMGWYRQAPGKERELVAAITRSGSRSYYADSVKGRFTISRDNAKNTVYLQMNSLKPEDTAVYSCNGPRPASTDRRRYNYCGQGTQVTVSS", "polyreactivity (PSR sort gate)": "high polyreactivity"}
{"sequence": "QVQLVESGGGLVQAGGSLRLSCAASGFTFYRYAMGWYRQAPGKERELVATISASGGSTYYADSVKGRFTISRDNAKNTVYLQMNSLKPEDTAVYYCAAEHYLWGYVVVREDYWGQGTQVTVSS", "polyreactivity (PSR sort gate)": "high polyreactivity"}
{"sequence": "QVQLVESGGGLVQAGGSLRLSCAASGFTFYRYAMGWYRQAPGNERELVAAISSGGRTTYADSVKGRFTISRDNANNTVYLQMNSLKPQDTAVYYCVFVYVYDYYYWGQGTQVTVSS", "polyreactivity (PSR sort gate)": "high polyreactivity"}
{"sequence": "QVQLVESGGGLVQAGGSLRLSCAASGFTFYRYAMGWYRQAPWKERELVAVISGNAGSTYYADSVKGRFTISRDNAKNTVYLQMNSLKPEDTAVYYCNARKARAYGTFEYWGQGTQVTVSS", "polyreactivity (PSR sort gate)": "high polyreactivity"}
{"sequence": "QVQLVESGGGLVQAGGSLRLSCAASGFTFYRYTMGCYRQAPGKERELVAAISSGDSTYYADSVKGRFTISRDNAKNTVYLQMNSLKPEDTAVYYCAARQYSRGAIVYYWGQGTQVTVSS", "polyreactivity (PSR sort gate)": "high polyreactivity"}
{"sequence": "QVQLVESGGGLVQAGGSLRLSCAASGFTFYSYAMGWSRQAPGKERELVAAISGGGGSTYYADSVKGRFTISRDNAKNTVYLQMNSLKPEDTAVYYCAKRPAYRGYGLGYYWGQGTQVTVSS", "polyreactivity (PSR sort gate)": "high polyreactivity"}
{"sequence": "QVQLVESGGGLVQAGGSLRLSCAASGFTFYSYAMGWYRQAPGKERELVAAISWSGTRTYYADSVKGRFTISRDNAKNTVYLQMNSLKPEDTAVYYCAARGYRYGYGYWGQGTQVTVSS", "polyreactivity (PSR sort gate)": "high polyreactivity"}
{"sequence": "QVQLVESGGGLVQAGGSLRLSCAASGFTFYSYAMGWYRQAPGKERELVAAITDRGGSTYYADSVKGRFTISRDNAKNTVYLQMNSLKPEDTAVYYCAAASGIRSYSYGWLGREYYWGQGTQVTVSS", "polyreactivity (PSR sort gate)": "high polyreactivity"}
{"sequence": "QVQLVESGGGLVQAGGSLRLSCAASGFTFYSYAMGWYRQAPGKERELVAAITQSGGSTYYADSVKGRFTISRDNAKNTVYLQMNSLKPEDTAVYYCAADIYNDYDYGYYYWGQGTQVTVSS", "polyreactivity (PSR sort gate)": "low polyreactivity"}
{"sequence": "QVQLVESGGGLVQAGGSLRLSCAASGFTFYSYAMGWYRQAPGKERELVAAITRSGGNTYYADSVKGRFTISRDNAKNTVYLQMNSLKPEDTAVYYCAAPGKGISPSHYYWGQGPQVTVSS", "polyreactivity (PSR sort gate)": "high polyreactivity"}
{"sequence": "QVQLVESGGGLVQAGGSLRLSCAASGFTFYSYAMGWYRQAPGKERELVASISQSGGRTYYADSVKGRFTISRDNAKNTVYLQMNSLKPEDTAVYYCARQRSYGRSSYSYGYDYWGQGTQVTVSS", "polyreactivity (PSR sort gate)": "high polyreactivity"}
{"sequence": "QVQLVESGGGLVQAGGSLRLSCAASGFTFYSYAMGWYRQSPGKERELVAAISWSGTRTYYADSVKGRFTISRDTAKNTVYLQMNSLKPEDTAVYYCAARGYRYGYGYWGQGTQVTVSS", "polyreactivity (PSR sort gate)": "high polyreactivity"}
{"sequence": "QVQLVESGGGLVQAGGSLRLSCAASGFTFYSYVMGWYRQAPGKERELVAAIDPSGGRTYYADSVKGRFTISRDYAKNTVYLQMNSLKPVDTAVYYCAVPRVDYWGQGTQVTVSS", "polyreactivity (PSR sort gate)": "high polyreactivity"}
{"sequence": "QVQLVESGGGLVQAGGSLRLSCAASGFTFYSYVMGWYRQAPGKERELVAAISWSGGSTYYADSVKGRFTISRDNAKNTVYLQMNSLKPEDTAVYYCAARRYASRTGYLYDYWGQGTQVTVSS", "polyreactivity (PSR sort gate)": "high polyreactivity"}
{"sequence": "QVQLVESGGGLVQAGGSLRLSCAASGFTFYTNVMGWYRQAPGKERELVAAINSGGSTNYADSVKGRFTISRDNAKNTVYLQRNSLKPEDTAVYYCNKRGTEIGYDYWGQGTQVTVLS", "polyreactivity (PSR sort gate)": "low polyreactivity"}
{"sequence": "QVQLVESGGGLVQAGGSLRLSCAASGFTFYTYAMGWYRQAPGKERELVADISSGGSTNYADSVKGRFTISRDNAKNTVYLQMNSLKPEDTAVYYCSADYYFLDWYDYWGQGTQVTVSS", "polyreactivity (PSR sort gate)": "low polyreactivity"}
{"sequence": "QVQLVESGGGLVQAGGSLRLSCAASGFTFYTYMGWYRQAPGKERELVAAISWSGDSTYYADSVKGRFTISRDNAKNTVYLQMKSLKPEDTAVYYCAARRVFYNGYYVNVGSFYYWGQGTQVTVSS", "polyreactivity (PSR sort gate)": "low polyreactivity"}
{"sequence": "QVQLVESGGGLVQAGGSLRLSCAASGFTFYTYTMGWYRQAPGKERELVAVITSRGTRTYYADSVKGRFTISRDNAKNTVYLQMNSLKPEDTAVYYCNKGAGWSFGYWGQGTQVTVSS", "polyreactivity (PSR sort gate)": "high polyreactivity"}
{"sequence": "QVQLVESGGGLVQAGGSLRLSCAASGFTFYTYVMGWYRQAPGKERELVAAITSGVSTNYADSVKGRFTISRDNAKNTVYLQMNSVKPEDTAVYYCAAGYPSWYYGYPYDSWGQGTQVTVSS", "polyreactivity (PSR sort gate)": "low polyreactivity"}
{"sequence": "QVQLVESGGGLVQAGGSLRLSCAASGFTFYVYAMGWDRQAPGKEREFVAAISSSGGSTYYADSVKGRFTISRDNAKNTVYLQMNSLKPEDTAVYYCAALAYSTTRGRLDYWGQGTQVTVSS", "polyreactivity (PSR sort gate)": "high polyreactivity"}
{"sequence": "QVQLVESGGGLVQAGGSLRLSCAASGFTFYVYAMGWYRQAPGKERELVAAISRGGSTYYADSVKGRFTISRDNAKNTVYLQMNSLKPEDTAVYYCNRVPYVSSSKVRYSNGFDYWGQGTQVTVSS", "polyreactivity (PSR sort gate)": "low polyreactivity"}
{"sequence": "QVQLVESGGGLVQAGGSLRLSCAASGFTFYVYVMGWYRPAPGKERELVAGISRGGSTYYADSVKGRFTISRDTAKNTVYLQMNSLKPEDTAVYYCNARRAWSSTYGYWGQGTQVTVSS", "polyreactivity (PSR sort gate)": "high polyreactivity"}
{"sequence": "QVQLVESGGGLVQAGGSLRLSCAASGFTFYWNTMGWYRPAPGKERELVAAISWSGGDTDYADSVKGRFTISRDNAKNTVYLQMNSLKPEDTAVYYCNSIYVSDRSSAVSFDYWGQGTQVNVSS", "polyreactivity (PSR sort gate)": "low polyreactivity"}
{"sequence": "QVQLVESGGGLVQAGGSLRLSCAASGFTFYWYAMGWYRQAPGKEREFVAAIDQSGGSTYYADSVKGRFTISRDNAKNTVYLQMNSLKPEDTAVYYCAAAYLRYVSTQYHYDYWGQGTQVTVSS", "polyreactivity (PSR sort gate)": "low polyreactivity"}
{"sequence": "QVQLVESGGGLVQAGGSLRLSCAASGFTFYWYAMGWYRQAPGKEREFVAAIDQSGGSTYYADSVKGRFTISRDNAKNTVYLQMNSLKPEDTAVYYCAARYILWDGDSWTEFDYWGQGTQVTVSS", "polyreactivity (PSR sort gate)": "low polyreactivity"}
{"sequence": "QVQLVESGGGLVQAGGSLRLSCAASGFTFYWYAMGWYRQAPGKERELVAAISRGGSTNYADSVKGRFTISRDNAKNTVYLQMNSLKPEDTAVYYCARDNPYRWFYRYVGEGDYWGQGTQVTVSS", "polyreactivity (PSR sort gate)": "low polyreactivity"}
{"sequence": "QVQLVESGGGLVQAGGSLRLSCAASGFTFYWYAMGWYRQAPGKERELVAAITSGGGTTYYADSVKGRFTISRDNAKNTVYLQMNSLKPEDTAVYYCAADSYTYPWIERDYWGQGTQVTVSS", "polyreactivity (PSR sort gate)": "high polyreactivity"}
{"sequence": "QVQLVESGGGLVQAGGSLRLSCAASGFTFYYNAMGWYRQAPGKERELVAAISASGGRTYYADSVKGRFTISRDNAKNTVYLQINSLKPEDTAVYYCAYRVYPHYGWYDYWGQGTQVTVSS", "polyreactivity (PSR sort gate)": "high polyreactivity"}
{"sequence": "QVQLVESGGGLVQAGGSLRLSCAASGFTFYYNAMGWYRQAPGKERELVAAISSRGTSTYYADSVKGRFTISRDNAKNTVYLQMNSLKPEDTAVYYCNTDRIGRYYQSYGGGHMDYWGQGTQVTVSS", "polyreactivity (PSR sort gate)": "high polyreactivity"}
{"sequence": "QVQLVESGGGLVQAGGSLRLSCAASGFTFYYNAMGWYRQAPGKERELVAAISTGGSTYYADSVKGRFTISRDNAKNTVYLQMNSLKPEDTAVYYCAAKTYGRRWSYYYWGQGTQVTVSS", "polyreactivity (PSR sort gate)": "high polyreactivity"}
{"sequence": "QVQLVESGGGLVQAGGSLRLSCAASGFTFYYNAMGWYRQAPGKERELVAAISTRGGNTYYADSVKGRFTISRDNAKNTVYLQMNSLKPEDTAVYYCARKIRREGRYDYWGQGTQVTVSS", "polyreactivity (PSR sort gate)": "high polyreactivity"}
